Reference: patent publication US20250243277A1 (AVACTA LIFE SCIENCES, published 2025)
Substitutions are numbered along the chain they refer to.

B1: Clone 125 (designed binder)
chain: MIPGGLSEAKPATPEIQEIVDKVKPQLEEKTGETYGKLEAVQYKTQVVTRLHFPQYQGTNYYIKVRAGDNKYMHLKVFKSLEIEVNPYANEDLVLTGYQVDKNKDDELTGF
notes: His-tagged
B2: Clone 130 (designed binder)
chain: MIPGGLSEAKPATPEIQEIVDKVKPQLEEKTGETYGKLEAVQYKTQVVPQPEWNEWGVTNYYIKVRAGDNKYMHLKVFKSLIFWNEKLIREDLVLTGYQVDKNKDDELTGF
notes: His-tagged
B3: Clone 133 (designed binder)
chain: MIPGGLSEAKPATPEIQEIVDKVKPQLEEKTGETYGKLEAVQYKTQVVLYSESRDYKGTNYYIKVRAGDNKYMHLKVFKSLHAYKGSIYREDLVLTGYQVDKNKDDELTGF
notes: His-tagged
B4: Clone 124 (designed binder)
chain: MIPGGLSEAKPATPEIQEIVDKVKPQLEEKTGETYGKLEAVQYKTQVDQVLWEIFEHGTNYYIKVRAGDNKYMHLKVFKSLFHQWSPALHEDLVLTGYQVDKNKDDELTGF
notes: His-tagged
B5: Clone 120 (designed binder)
chain: MIPGGLSEAKPATPEIQEIVDKVKPQLEEKTGETYGKLEAVQYKTQVDPEVSITRWQGTNYYIKVRAGDNKYMHLKVFKSLYETHGNIITEDLVLTGYQVDKNKDDELTGF
notes: His-tagged
B6: Clone 131 (designed binder)
chain: MIPGGLSEAKPATPEIQEIVDKVKPQLEEKTGETYGKLEAVQYKTQVVNQWEWPVDLGTNYYIKVRAGDNKYMHLKVFKSLKVYRTHHIFEDLVLTGYQVDKNKDDELTGF
notes: His-tagged
B7: Clone 128 (designed binder)
chain: MIPGGLSEAKPATPEIQEIVDKVKPQLEEKTGETYGKLEAVQYKTQVVPEVDKAEWWGTNYYIKVRAGDNKYMHLKVFKSLIRYGLRHEREDLVLTGYQVDKNKDDELTGF
notes: His-tagged
B8: Clone 13 (designed binder)
chain: MIPGGLSEAKPATPEIQEIVDKVKPQLEEKTGETYGKLEAVQYKTQVVLFREEKYNYGTNYYIKVRAGDNKYMHLKVFKSLAWGEVVSNAEDLVLTGYQVDKNKDDELTGF
notes: His-tagged
B9: Clone 127 (designed binder)
chain: MIPGGLSEAKPATPEIQEIVDKVKPQLEEKTGETYGKLEAVQYKTQVVTQAIPWREWGTNYYIKVRAGDNKYMHLKVFKSLIPEWPKDASEDLVLTGYQVDKNKDDELTGF
notes: His-tagged
B10: Clone 136 (designed binder)
chain: MIPGGLSEAKPATPEIQEIVDKVKPQLEEKTGETYGKLEAVQYKTQVVVLRWQWGYLGTNYYIKVRAGDNKYMHLKVFKSLQLLYEDNDEDLVLTGYQVDKNKDDELTGF
notes: His-tagged
B11: Clone 134 (designed binder)
chain: MIPGGLSEAKPATPEIQEIVDKVKPQLEEKTGETYGKLEAVQYKTQVVFWFEDIQWLGTNYYIKVRAGDNKYMHLKVFKSLRFREDVDIREDLVLTGYQVDKNKDDELTGF
notes: His-tagged
B12: Clone 176 (designed binder)
chain: MIPGGLSEAKPATPEIQEIVDKVKPQLEEKTGETYGKLEAVQYKTQVVFWYPEIGWLGTNYYIKVRAGDNKYMHLKVFKSLRSRYPNYTAEDLVLTGYQVDKNKDDELTGF
notes: His-tagged
B13: Clone 29 (designed binder)
chain: MIPGGLSEAKPATPEIQEIVDKVKPQLEEKTGETYGKLEAVQYKTQVVFTFVDIHWYGTNYYIKVRAGDNKYMHLKVFKSLRKPKDRQYTEDLVLTGYQVDKNKDDELTGF
notes: His-tagged
B14: Clone 162 (designed binder)
chain: MIPGGLSEAKPATPEIQEIVDKVKPQLEEKTGETYGKLEAVQYKTQVVFTFSSIGWWGTNYYIKVRAGDNKYMHLKVFKSLRQLLDKPRYEDLVLTGYQVDKNKDDELTGF
notes: His-tagged
B15: Clone 12 (designed binder)
chain: MIPGGLSEAKPATPEIQEIVDKVKPQLEEKTGETYGKLEAVQYKTQVVQLKFPPYVSGTNYYIKVRAGDNKYMHLKVFKSLGWDDKPEWDEDLVLTGYQVDKNKDDELTGF
notes: His-tagged
B16: Clone 154 (designed binder)
chain: MIPGGLSEAKPATPEIQEIVDKVKPQLEEKTGETYGKLEAVQYKTQVVPQIGAPYVKGTNYYIKVRAGDNKYMHLKVFKSLGWNSNIGVLEDLVLTGYQVDKNKDDELTGF
notes: His-tagged
B17: Clone 161 (designed binder)
chain: MIPGGLSEAKPATPEIQEIVDKVKPQLEEKTGETYGKLEAVQYKTQVVVLERPPYVKGTNYYIKVRAGDNKYMHLKVFKSLNWEGEPSGVEDLVLTGYQVDKNKDDELTGF
notes: His-tagged
B18: Clone 219 (designed binder)
chain: MIPGGLSEAKPATPEIQEIVDKVKPQLEEKTGETYGKLEAVQYKTQVVPLTIPPFVEGTNYYIKVRAGDNKYMHLKVFKSLGWQQVNDVKEDLVLTGYQVDKNKDDELTGF
notes: His-tagged
B19: Clone 16 (designed binder)
chain: MIPGGLSEAKPATPEIQEIVDKVKPQLEEKTGETYGKLEAVQYKTQVVHIQWPPWVEGTNYYIKVRAGDNKYMHLKVFKSLGWTSDNSNFEDLVLTGYQVDKNKDDELTGF
notes: His-tagged
B20: Clone 240 (designed binder)
chain: MIPGGLSEAKPATPEIQEIVDKVKPQLEEKTGETYGKLEAVQYKTQVVLLYQAPFVQGTNYYIKVRAGDNKYMHLKVFKSLGWDLEYSQKEDLVLTGYQVDKNKDDELTGF
notes: His-tagged
B21: Clone 19 (designed binder)
chain: B16 chain with P49Y, Q50R, I51F, A53P, S85A, N86F, I87S, G88S, V89P, L90A
notes: His-tagged
B22: Clone 126 (designed binder)
chain: MIPGGLSEAKPATPEIQEIVDKVKPQLEEKTGETYGKLEAVQYKTQVVYEPHHPYPWGTNYYIKVRAGDNKYMHLKVFKSLQYHPPYERFEDLVLTGYQVDKNKDDELTGF
notes: His-tagged
B23: Clone 123 (designed binder)
chain: MIPGGLSEAKPATPEIQEIVDKVKPQLEEKTGETYGKLEAVQYKTQVDNLVYYQRDWGTNYYIKVRAGDNKYMHLKVFKSLEPGRWRWPKEDLVLTGYQVDKNKDDELTGF
notes: His-tagged
B24: Clone 121 (designed binder)
chain: MIPGGLSEAKPATPEIQEIVDKVKPQLEEKTGETYGKLEAVQYKTQVDGNFAHERWQGTNYYIKVRAGDNKYMHLKVFKSLYIARDFDWTEDLVLTGYQVDKNKDDELTGF
notes: His-tagged
B25: Clone 132 (designed binder)
chain: MIPGGLSEAKPATPEIQEIVDKVKPQLEEKTGETYGKLEAVQYKTQVVERYHFPQFTGTNYYIKVRAGDNKYMHLKVFKSLNHDQVRWNLEDLVLTGYQVDKNKDDELTGF
notes: His-tagged
B26: Clone 135 (designed binder)
chain: MIPGGLSEAKPATPEIQEIVDKVKPQLEEKTGETYGKLEAVQYKTQVVAVYPTFKYGTNYYIKVRAGDNKYMHLKVFKSLKVEYLDFITEDLVLTGYQVDKNKDDELTGF
notes: His-tagged

target: T1, human PD-L1-Fc (R&D Systems) (human, UniProt Q9NZQ7 19-239); experiment: soluble Affimer ELISA
T1 construct: Bought from R&D Systems; Biotinylated in-house for the phage selection; also called huPD-L1-Fc; human PD-L1-Fc antigen; not shown: Fc part of the bought fusion
T1 sequence (Q9NZQ7 19-239 limits assumed): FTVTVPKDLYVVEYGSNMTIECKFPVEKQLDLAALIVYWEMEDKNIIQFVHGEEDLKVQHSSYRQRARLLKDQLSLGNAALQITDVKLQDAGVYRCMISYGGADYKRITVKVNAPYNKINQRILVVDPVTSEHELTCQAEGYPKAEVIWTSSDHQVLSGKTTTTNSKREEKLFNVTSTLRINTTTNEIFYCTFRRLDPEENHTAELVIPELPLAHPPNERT

| binding result | Binder |
| --- | --- |
| binds | B1 |
| binds | B2 |
| binds | B3 |
| binds | B4 |
| binds | B5 |
| binds | B6 |
| binds | B7 |
| binds | B8 |
| binds | B9 |
| binds | B10 |
| binds | B11 |
| binds | B12 |
| binds | B13 |
| binds | B14 |
| binds | B15 |
| binds | B16 |
| binds | B17 |
| binds | B18 |
| binds | B19 |
| binds | B20 |
| binds | B21 |
| binds | B22 |
| binds | B23 |
| binds | B24 |
| binds | B25 |
| binds | B26 |
